Reference: patent publication US20190322765A1

Tests used:
[1] = biological target: IL-2R βγ heterodimer on human cells (NK92 cells, NK and T cells of PBMC) (human) (UniProt P14784); experiment: cell-based or functional assay
[2] = biological target: murine IL-2R α-subunit, recombinant monomeric (murine) (UniProt P01590); experiment: SPR, against the human IL-2R α-subunit as reference
[3] = biological target: murine IL-2R βγ heterodimer (β knob γ hole Fc fusion) (murine) (UniProt P16297); experiment: SPR, against the human IL-2R βγ heterodimer as reference
Sequence of murine IL-2R βγ heterodimer (β knob γ hole Fc fusion) (murine) (P16297 27-240, chain 1 of 2): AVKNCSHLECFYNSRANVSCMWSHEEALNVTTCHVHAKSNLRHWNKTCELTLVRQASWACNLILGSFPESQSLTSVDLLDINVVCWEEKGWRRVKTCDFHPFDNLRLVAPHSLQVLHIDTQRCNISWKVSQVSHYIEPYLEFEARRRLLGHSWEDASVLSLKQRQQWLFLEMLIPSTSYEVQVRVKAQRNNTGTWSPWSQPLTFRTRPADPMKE
Sequence of murine IL-2R βγ heterodimer (β knob γ hole Fc fusion) (murine) (P34902 23-263, chain 2 of 2, further chain): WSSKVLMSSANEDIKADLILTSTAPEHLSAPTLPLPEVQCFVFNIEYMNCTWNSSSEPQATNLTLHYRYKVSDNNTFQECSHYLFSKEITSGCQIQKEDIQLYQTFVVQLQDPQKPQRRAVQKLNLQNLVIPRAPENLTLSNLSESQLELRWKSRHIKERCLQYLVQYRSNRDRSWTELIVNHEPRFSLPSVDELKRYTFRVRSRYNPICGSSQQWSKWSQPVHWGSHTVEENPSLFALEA

Sequence of IL-2R βγ heterodimer on human cells (NK92 cells, NK and T cells of PBMC) (human) (P14784 27-551, chain 1 of 2): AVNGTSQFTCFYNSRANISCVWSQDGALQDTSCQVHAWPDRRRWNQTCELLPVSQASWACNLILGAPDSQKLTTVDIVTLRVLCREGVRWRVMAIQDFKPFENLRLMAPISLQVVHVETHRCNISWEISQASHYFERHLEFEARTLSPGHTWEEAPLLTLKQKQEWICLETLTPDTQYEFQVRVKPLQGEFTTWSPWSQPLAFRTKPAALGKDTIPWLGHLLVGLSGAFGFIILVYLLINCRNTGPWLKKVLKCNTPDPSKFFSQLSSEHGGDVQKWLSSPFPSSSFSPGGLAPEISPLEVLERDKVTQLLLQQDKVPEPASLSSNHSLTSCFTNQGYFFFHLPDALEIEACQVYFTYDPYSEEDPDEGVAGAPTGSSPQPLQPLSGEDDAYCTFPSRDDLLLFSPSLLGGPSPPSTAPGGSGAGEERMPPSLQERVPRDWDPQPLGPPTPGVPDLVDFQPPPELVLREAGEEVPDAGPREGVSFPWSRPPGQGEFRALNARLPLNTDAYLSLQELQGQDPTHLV
Sequence of IL-2R βγ heterodimer on human cells (NK92 cells, NK and T cells of PBMC) (human) (P31785 23-369, chain 2 of 2, further chain): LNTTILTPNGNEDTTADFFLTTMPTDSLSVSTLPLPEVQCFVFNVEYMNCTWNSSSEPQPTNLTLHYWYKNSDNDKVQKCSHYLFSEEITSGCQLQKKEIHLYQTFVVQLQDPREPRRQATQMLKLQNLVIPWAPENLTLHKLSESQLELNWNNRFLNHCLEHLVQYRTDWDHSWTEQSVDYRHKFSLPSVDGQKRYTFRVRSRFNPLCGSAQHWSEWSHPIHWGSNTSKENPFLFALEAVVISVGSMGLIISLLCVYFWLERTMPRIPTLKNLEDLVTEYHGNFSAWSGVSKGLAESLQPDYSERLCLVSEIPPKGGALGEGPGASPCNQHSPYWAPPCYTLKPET
Sequence of murine IL-2R α-subunit, recombinant monomeric (murine) (P01590 22-236 limits assumed): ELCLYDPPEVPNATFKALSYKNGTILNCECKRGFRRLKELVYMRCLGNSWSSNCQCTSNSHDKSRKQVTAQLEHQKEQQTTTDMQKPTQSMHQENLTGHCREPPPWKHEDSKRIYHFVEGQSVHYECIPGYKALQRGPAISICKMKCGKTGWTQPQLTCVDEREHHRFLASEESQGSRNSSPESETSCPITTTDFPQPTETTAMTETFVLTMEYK

Substance | EC50 of IFN-γ release by NK92 cells [1] [nM] | EC50 of STAT5 phosphorylation, CD8+ T cells [1] [nM] | EC50 of STAT5 phosphorylation, NK cells [1] [nM] | fold lower affinity than for the human receptor [2] [fold] | fold lower affinity than for the human receptor [3] [fold]
Proleukin (Novartis/Chiron), commercially available wild-type IL-2 (from UniProt P60568 22-153) (ligand) | 4.1 | 1.07 | 0.222 | – | –
human IL-2 | – | – | – | 10 | 10
